Laboratory results published in PMC6186450.
pKd: −log10 of the molar value.

Target: Human Plasma Fibronectin (human)
Assay: ITC

Row | Substance | pKd | stoichiometry N | dH [kcal/mol]
1 | 10 kDa PEG-FUD (peptide) | 8.34 | – | –
2 | 20 kDa PEG-FUD (peptide) | 8.00 | 1.63 | –
3 | 40 kDa PEG-FUD (peptide) | 7.83 | – | -32.5
4 | Functional Upstream Domain (FUD) peptide | 8.22 | – | –
